{"source": "paper doi:10.1101/2021.03.10.433854", "assay_in_all_cases": "SPR", "key": {"[1]": {"biological_target": "catalytic domain of human AURKA (amino acids 122-430) (human)"}, "[2]": {"biological_target": "catalytic domain of human AURKA (amino acids 122-430) (human)", "remark": "listed apart in the source"}, "[3]": {"biological_target": "catalytic domain of human AURKA (amino acids 122-430) (human)", "remark": "listed apart in the source"}}, "note": "Several values for one entry are separate records, joined by “and”; a condition that tells them apart may be missing. Identical values can stand only once. Like-named read-outs stand apart in the source and are kept apart here.", "data": [{"substance": "AURKA interacting region (AIR) of N-Myc (N-Myc residues 61-89) (from UniProt P04198 61-89) (peptide)", "values": [{"measurement": "Kd", "setting": "[1]", "value": "0.69 µM and 4 µM"}, {"measurement": "Kd", "setting": "[2]", "value": "> 15", "unit": "µM"}, {"measurement": "Kd", "setting": "[3]", "value": 0.99, "unit": "µM"}, {"measurement": "koff", "setting": "[3]", "value": 0.0659, "unit": "s⁻¹"}, {"measurement": "kon", "setting": "[3]", "value": 63000, "unit": "M⁻¹ s⁻¹"}]}]}
